Experimental data: PMC12102759 (2025)

B1: AXIN1 peptide 235-250 (Axin-1), 16-mer library wild type / PP2A B56 (PPP2R5A B56 domain, residues 1-486) (parent complex)
chain 1: SGYLPTLNEDEEWKAD
chain 2: not shown

Variants of: B1
Experiment: proteomic peptide phage display deep mutational scan (ProP-PD DMS): M13 P8 16-mer library selected against immobilised GST-tagged bait for four days (rounds), NGS of the eluted pools per day and pseudo-replica; bait immobilised on MaxiSorp plates (10 µg), library pre-cleared on GST, 2 h binding at 4 °C, five washes; one round per day, days 1-4; value from days 2 and 3

Q: How did the screen value turn out when chain 1 W13V was run?
A: 0.000494 average fractional NGS count over selection days 2 and 3 (reads of this peptide / all reads for the bait, averaged over …

Q: How did the screen value turn out when chain 1 G2T was run?
A: 0.00134 average fractional NGS count over selection days 2 and 3 (reads of this peptide / all reads for the bait, averaged over …

Q: With chain 1 G2P as the variant, how does the screen value read?
A: 0.0013 average fractional NGS count over selection days 2 and 3 (reads of this peptide / all reads for the bait, averaged over …

Q: chain 1 N8L was tested. Which screen value did it give?
A: 0.000128 average fractional NGS count over selection days 2 and 3 (reads of this peptide / all reads for the bait, averaged over …

Q: Which screen value does the source give for chain 1 N8V here?
A: 0.022 average fractional NGS count over selection days 2 and 3 (reads of this peptide / all reads for the bait, averaged over …

Q: Which screen value does the source give for chain 1 D16F here?
A: 0.00025 average fractional NGS count over selection days 2 and 3 (reads of this peptide / all reads for the bait, averaged over …

Q: With chain 1 D16Q as the variant, how does the screen value read?
A: 0.00121 average fractional NGS count over selection days 2 and 3 (reads of this peptide / all reads for the bait, averaged over …

Q: How did the screen value turn out when chain 1 D16A was run?
A: 0.00219 average fractional NGS count over selection days 2 and 3 (reads of this peptide / all reads for the bait, averaged over …

Q: Which screen value does the source give for chain 1 D10N here?
A: 0.000347 average fractional NGS count over selection days 2 and 3 (reads of this peptide / all reads for the bait, averaged over …

Q: How did the screen value turn out when chain 1 D10I was run?
A: 0.00126 average fractional NGS count over selection days 2 and 3 (reads of this peptide / all reads for the bait, averaged over …

Q: For chain 1 D10S, which screen value is on record?
A: 0.000583 average fractional NGS count over selection days 2 and 3 (reads of this peptide / all reads for the bait, averaged over …

Q: With chain 1 D10Q as the variant, how does the screen value read?
A: 0.00101 average fractional NGS count over selection days 2 and 3 (reads of this peptide / all reads for the bait, averaged over …

Q: Which screen value does the source give for chain 1 D10W here?
A: 0.0017 average fractional NGS count over selection days 2 and 3 (reads of this peptide / all reads for the bait, averaged over …

Q: Which screen value does the source give for chain 1 E12M here?
A: 0.000888 average fractional NGS count over selection days 2 and 3 (reads of this peptide / all reads for the bait, averaged over …

Q: chain 1 E12I was tested. Which screen value did it give?
A: 0.00181 average fractional NGS count over selection days 2 and 3 (reads of this peptide / all reads for the bait, averaged over …

Q: chain 1 E12S was tested. Which screen value did it give?
A: 0.000153 average fractional NGS count over selection days 2 and 3 (reads of this peptide / all reads for the bait, averaged over …

Q: With chain 1 E12Y as the variant, how does the screen value read?
A: 0.000809 average fractional NGS count over selection days 2 and 3 (reads of this peptide / all reads for the bait, averaged over …

Q: chain 1 K14S was tested. Which screen value did it give?
A: 0.000394 average fractional NGS count over selection days 2 and 3 (reads of this peptide / all reads for the bait, averaged over …

Q: With chain 1 K14A as the variant, how does the screen value read?
A: 0.000829 average fractional NGS count over selection days 2 and 3 (reads of this peptide / all reads for the bait, averaged over …

Q: For chain 1 Y3Q, which screen value is on record?
A: 0.000114 average fractional NGS count over selection days 2 and 3 (reads of this peptide / all reads for the bait, averaged over …

Q: With chain 1 Y3M as the variant, how does the screen value read?
A: 0.000836 average fractional NGS count over selection days 2 and 3 (reads of this peptide / all reads for the bait, averaged over …

Q: Which screen value does the source give for chain 1 Y3W here?
A: 0.00058 average fractional NGS count over selection days 2 and 3 (reads of this peptide / all reads for the bait, averaged over …

Q: How did the screen value turn out when chain 1 E11H was run?
A: 0.000134 average fractional NGS count over selection days 2 and 3 (reads of this peptide / all reads for the bait, averaged over …

Q: chain 1 E11W was tested. Which screen value did it give?
A: 0.000117 average fractional NGS count over selection days 2 and 3 (reads of this peptide / all reads for the bait, averaged over …

Q: chain 1 E11T was tested. Which screen value did it give?
A: 0.0139 average fractional NGS count over selection days 2 and 3 (reads of this peptide / all reads for the bait, averaged over …

Q: With chain 1 E11M as the variant, how does the screen value read?
A: 0.00494 average fractional NGS count over selection days 2 and 3 (reads of this peptide / all reads for the bait, averaged over …

Q: Which screen value does the source give for chain 1 A15I here?
A: 0.000279 average fractional NGS count over selection days 2 and 3 (reads of this peptide / all reads for the bait, averaged over …

Q: Which screen value does the source give for chain 1 A15E here?
A: 0.000423 average fractional NGS count over selection days 2 and 3 (reads of this peptide / all reads for the bait, averaged over …

Q: chain 1 A15Q was tested. Which screen value did it give?
A: 0.000281 average fractional NGS count over selection days 2 and 3 (reads of this peptide / all reads for the bait, averaged over …

Q: With chain 1 A15V as the variant, how does the screen value read?
A: 0.00273 average fractional NGS count over selection days 2 and 3 (reads of this peptide / all reads for the bait, averaged over …

Q: With chain 1 A15H as the variant, how does the screen value read?
A: 0.00152 average fractional NGS count over selection days 2 and 3 (reads of this peptide / all reads for the bait, averaged over …
